These results are taken from US12162937B2, “Methods of treating an inflammatory disorder by administering an antibody which binds to a connexin CX43 hemichannel” (BOARD OF REGENTS OF THE UNIVERSITY OF TEXAS SYSTEM, priority 2013, dated 2024).

“Also recorded” adds a separate entry of the source. Where two headings read alike, the source gives them in different places.

One assay relates to MDA-MB-231 cells. Kind of assay: Wound healing migration assay. The note with it: cancer cells treated directly with AD. Type of assay: cell-based. An excerpt:
FIGS. 5A and 5B illustrate the results of studies using a wound healing migration assay. CM-AD from osteocytes inhibits MDA-MB-231 cell migration.
FIG. 6 illustrates results of another wound healing migration assay.
Opening of osteocytic Cx43 hemichannels mediate a negative effect on cancer cell migration. Cx43 hemichannels in osteocytes are opened by administration of AD or FFSS. The opened hemichannels permit the release of various factors into the medium producing a conditioned medium (CM). The released factor(s) in the AD- or FFSS-treated CM decrease cancer cell migration as determined by soft agar and wound healing assays. An example of a soft agar assay is diagrammed in FIG. 3. […] The soft agar assay is an assay for anchorage-independent growth, as contrasted with anchorage-dependent growth. Only cancer cells can grow on soft agar and their growth on this matrix indicates the extent of the cancer cell proliferation.
In certain aspects the methods include incubating primary osteocytes or osteocyte cell lines with a test reagent in α-MEM for various periods of time and collecting the supernatant (conditioned media) at various time points. In certain aspects breast or prostate cancer cells are incubated with CM and cancer cell proliferation, migration, and invasion are determined.

Assay [1] deals with T1, Cx43 hemichannels (Mus musculus, UniProt P23242). To be noted: MLO-A5 osteoblasts, AD treatment.
T1 sequence (P23242 whole entry): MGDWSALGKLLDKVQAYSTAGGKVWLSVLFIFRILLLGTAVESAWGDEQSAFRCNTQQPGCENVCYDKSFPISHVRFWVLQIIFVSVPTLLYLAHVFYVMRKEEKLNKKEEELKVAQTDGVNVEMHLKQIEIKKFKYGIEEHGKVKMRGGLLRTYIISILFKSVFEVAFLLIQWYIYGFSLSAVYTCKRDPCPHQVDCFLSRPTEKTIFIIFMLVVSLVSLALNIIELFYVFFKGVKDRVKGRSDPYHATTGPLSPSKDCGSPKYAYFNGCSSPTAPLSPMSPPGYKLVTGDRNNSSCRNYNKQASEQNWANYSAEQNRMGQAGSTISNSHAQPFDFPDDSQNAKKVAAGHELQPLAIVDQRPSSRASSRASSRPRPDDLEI
Procedure: Ethidium bromide dye uptake was conducted and quantified as compared to non-treated basal level of uptake. Study was carried out in calcium conditions. Low calcium conditions were used as control (opens hemichannels). […] MLO-Y4 osteocytic cells were treated with 20 μM AD for 30 min in the absence or presence of 1 μg/ml Cx43(E2) antibody. Ethidium bromide dye uptake assay was conducted and quantified as compared to non-treated basal level of uptake. The assays were carried out in the presence of calcium. Low calcium conditions were used as a control (opens hemichannels).
Assay [2] concerns the target Cx43 hemichannels in osteocytes (Homo sapiens, UniProt P17302). To be noted: Plotkin et al., 2002; cited from earlier work.
In assay [3] the target is T2, gap junctions (HeLa cells transfected with Cx43) (Homo sapiens, UniProt P17302).
T2 construct: expressed in transfected cells; host or cells: HeLa cells
T2 sequence (P17302 whole entry): as the sequence (P23242 whole entry) above, with E124D, V164I, R243K, T251S, P253A, S257A, P263Q, S341N, A344S, V347L counted along it
Kind of assay: Microinjection dye transfer (dye coupling) assay for gap junctions. The note with it: HeLa cells transfected with Cx43, mAbs for 3 h. It counts as cell-based. How it is done:
(§1) Dye uptake assay was performed in the presence of EtBr with or without mAbs for 20 min. (B) HeLa cells transfected with Cx43 were incubated with mAbs for 3 h and a signal cell was microinjected with AlexaFluor 488 to evaluate the extent of dye transfer assayed for gap junctions.
Dye coupling assay for gap junctions. MLO-Y4 cells were plated on collagen coated 35 mm dish and incubated with recording medium (HCO3^− free αMEM medium buffered with 10 mM HEPES). Cells were microinjected using a micromanipulator InjectMan NI 2 and Femtojet both from Eppendorf (Eppendorf) at 37° C. with alexafluor 350 (Invitrogen, Eugene, Oregon, USA) (10 mM in PBS). Dye transfer was measured after 2 minutes of alexafluor 350 injection. The index of dye coupling was scored counting the number of cells that were dye transferred. Dye coupling was observed under an inverted microscope equipped with Xenon arc lamp illumination and a Nikon eclipse (Nikon, Japan) (excitation wavelengths 330-380 nm; emission wavelengths above 420 nm).

Assay [4] deals with T3, gap junction channels (Hela cells transfected with Cx43) (Homo sapiens, UniProt P17302).
T3 construct: expressed in transfected cells; host or cells: HeLa cells
T3 sequence (P17302 whole entry): as the sequence (P23242 whole entry) above, with E124D, V164I, R243K, T251S, P253A, S257A, P263Q, S341N, A344S, V347L counted along it
Kind of assay: Parachuting dye transfer assay for gap junctions. Type of assay: cell-based. To be noted: Hela cells transfected with Cx43, calcein red-orange-AM / Oregon green 488 BAPTA-2-AM. How it is done:
FIG. 15 illustrates parachuting dye transfer assay showing M2 and M7, but not M1 blocks gap junction channels. Hela cells transfected with Cx43 was used for parachuting dye transfer experiments. Donor cells were incubated with 5 μM calcein red-orange-AM (790 Da) which is permeable to gap junctions and 5 μM Oregon green 488 BAPTA-2-AM (1752 Da) which is non-permeable to gap junctions for 40 minutes at 37° C. Donor cells were treated with trypsin and separated preloaded cells were layered (‘parachuted’) over the top of the unlabeled recipient cells at a 1:4 donor to receiver ratio. Cells were allowed to attach for 90 min. The cells were examined under a fluorescence microscope.
Cell parachute dye-transfer assay for gap junctions. MLO-Y4 cells were grown to confluence in 12 well plates. The donor cells were incubated with 5 μM calcein red-orange-AM (790 Da) and 5 μM Oregon green 488 BAPTA-2-AM (1752 Da) for 40 minutes at 37° C. Gap junction intercellular communication can be followed by simultaneously labeling cells with calcein red-orange as a gap junction permeable tracer dye and the gap junction channel impermeable dye Oregon green 488 BAPTA-2. Donor cells preloaded were remove form the plate by trypsinization. Preloaded cells were layered (‘parachuted’) over the top of the unlabeled recipient cells cultured in at a 1:4 donor to receiver ratio. Cells were allowed to attach for various periods 1 hours, and then carefully washed 3 times and fixed in fresh 2% PFA 10 min RT and rinse 3 times again. The cells were examined with a fluorescence microscope. For calcein red-orange transfer, the threshold was adjusted to clearly distinguish the dye-transfer boundaries. The dye transfer positive criterion was detecting the calcein red-orange/Oregon green 488 BAPTA-2 with contact cells calcein red-orange positive and Oregon green 488 BAPTA-2 negative. The dye transfer was almost undetectable (<1%). The images were taken in places where we found Oregon green 488 BAPTA-2 green positive cells.

The target of assay [5] is T4, hemichannel opening in mouse bone osteocytes (Mus musculus, UniProt P23242).
T4 construct: from tissue; host or cells: tibial bone osteocytes of living WT mice (Cx43 cKO mice as negative control)
T4 sequence (P23242 whole entry): as the sequence (P23242 whole entry) above
Put plainly: Evans blue dye uptake in mechanically loaded tibias in vivo. The note with it: 25 mg/kg injected 2 hr before Evans blue dye, tibia loaded 10 min. The protocol: FIG. 17. […] Mouse IgG or Cx43(M1) mAb (25 mg/kg) was injected 2 hr before Evans blue dye injection Into WT and Cx43 cKO mice. 30 min after dye injection, left (L) tibias were mechanically loaded once for 10 min. Mice were euthanized and perfused with 50 ml PBS. Tibias were isolated and fixed and bone tissue sections were prepared. Bar, […]. The arrowheads indicate dye uptake.
Determining the effect a compound on the opening of hemichannels in osteocytes in bone tissue in vivo. One example of an in vivo assay to analyze hemichannels in osteocytes uses 3-4 month old mice or rats. The animals are weighed. A test reagent is introduced into the animal through intraperitoneal (IP) injection. After 2-4 hours, fluorescence tracer dyes (i.e. Evans blue, Alexa 594) are injected into lateral tail vein of the animal or by IP injection. Note: up to 1% of animal's body weight in volume can be injected. In certain aspects the animal is warmed prior to tail vein injection to dilate the tail vein. After 2-4 hours, the animal is scarified and tibial and femur bones free of muscle tissues are dissected and washed multiple times with PBS. […] The bone sections can be examined under fluorescence microscope and the degree of osteocytes in the bone taking up tracer dyes are quantified using Image J. […]

For assay [6], the target named is T1, Cx43 hemichannels. Kind of assay: Dye uptake assay for hemichannel activity in low Ca2+ and Mg2+ media. It counts as cell-based. On the set-up: endogenous in cells; host or cells: MLO-Y4 osteocytic cells. To be noted: MLO-Y4 cells, mAbs for 20 min. The protocol: as §1
(§2) Dye uptake for hemichannel activities. Dye uptake measurements were evaluated using snap shot photographs. MLO-Y4 cells were plated on the collagen coated 35 mm dish and incubated with recording medium, HCO3^− free saline medium buffered with 10 mM HEPES salt composition in mM, 154 NaCl, 5.4 KCl, 1.8 CaCl2, 1.0 MgCl2, 5 Glucose. Medium with low concentration of divalent cation (low[X^2]) was added 0.5 mM EGTA but not CaCl2 and MgCl2. The recording or low[X^2] containing 50 μM EtBr for snap shot recording. Cells were exposed to 100 μM of EtBr during 5 min, then rinsed 3 times with PBS and fixed with 2% […]. At least 3 microphotographs of fluorescence fields were taken with a 10× dry objective in an inverted microscope (Carl Zeiss) with a rhodamine filter. The image analysis was made offline with the software image J. The average of pixel density of 30 random cells was measured.

Assay [7] addresses T1, Cx43 hemichannels. Put plainly: Dye uptake after fluid flow shear stress in MLO-Y4 cells. Type of assay: cell-based. Details: endogenous in cells; host or cells: MLO-Y4 osteocytic cells. To be noted: mAbs 20 min pretreatment, fluid flow shear stress 8 dynes/cm^2 10 min, 100 μM EtBr 5 min. How it is done:
FIG. 16. […] MLO-Y4 cells were pretreated with or without mAbs for 20 min. The cells were subjected to fluid flow shear stress at 8 dynes/cm^2 for 10 min and dye uptake was performed with 100 μM EtBr for 5 min. Cells were rinsed, fixed and images were taken under fluorescence microscopy.
as §2
Fluid flow shear stress to open hemichannels. Fluid flow was created by parallel-plate flow chambers separated by a gasket of defined thickness with gravity-driven fluid flow using a peristaltic pump. The thickness of the gasket determined the channel height, which was adjusted along with flow rate to generate stress levels of 16 dyn/cm^2. The circulating medium was α-MEM buffered with 10 mM HEPES.

Chain of Cx43 hemichannels in osteocytes (P17302 whole entry): as the sequence (P23242 whole entry) above, with E124D, V164I, R243K, T251S, P253A, S257A, P263Q, S341N, A344S, V347L counted along it

For `NCCCC(O)(P(=O)(O)O)P(=O)(O)O` [AD, alendronate], in the assay on MDA-MB-231 cells, the “direct effect on migration of MDA-MB-231 cells” value is given as “does not have a direct effect; also recorded: not seen”. In addition, the “opening of Cx43 hemichannels in osteoblasts” value on Cx43 hemichannels [1] is listed as “does not open”; on Cx43 hemichannels [1] (listed as alendronate) it was “do not appear to open”. Besides, the “opening of Cx43 hemichannels in osteocytes” value in assay [2] is reported as “induces the opening”.

B1: M1: mouse monoclonal antibody, heavy chain SEQ ID NO:2, light chain SEQ ID NO:4 (antibody, listed as Mus musculus)
heavy: EVQLEQPGAELVKPGASVKLSCKASGYTFTSYYMYWVKQRPGQGLEWIGGINPSNGGTNFNEKFKNKATLTVDKSSSTAYMQLSSLTSEDSAVYYCTREGNPYYTMNYWGQGTSVTVSSAKTTPPSVY
light: DIVMTQTPASLAVSLGQRATISYRASKSVSTSGYSYMHWNQQKPGQPPRLLIYLVSNLESGVPARFSGSGSGTDFTLNIHPVEEEDAATYYCQHIRELTRSEGGPSWK
As to B1, the “blocking of gap junctions (AlexaFluor 488 dye transfer)” value in assay [3] is on record as “not gap junctions”. Besides, the “blocking of gap junction channels (parachuting dye transfer)” value (from here on “blocking of gap junction channels”) in assay [4] is on record as “not”. Besides, the “blocking of hemichannel opening induced by mechanical loading in osteocytes in vivo” value in assay [5] was “blocks”. Moreover, the “blocking of hemichannels (EtBr dye uptake)” value with Cx43 hemichannels [6] is recorded as “blocks hemichannels”. The “blockage of hemichannel opening induced by mechanical loading” value (“blockage of hemichannel opening induced” below) with Cx43 hemichannels [7] is listed as “blockage”.

B2: M2: mouse monoclonal antibody, heavy chain SEQ ID NO:6, light chain SEQ ID NO:8 (antibody, listed as Mus musculus, V domains shown)
VH: EVQLEQPGAELVKPGASVKLSCKASGYTFTSYYMYWVKQRPGQGLEWIGGINPSNGGTNFNEKFKNKATLTVDKSSSTAYMQLSSLTSEDSAVYYCTREGNPYYTMNYWGQGTSVTVSSAKTTPPSVY
VL: DIVMTQTPSSLSVSAGEKVTMSCKSSQSLLNSGNQKTYLAWYQQKPGQPPKLLIYGASTRESGVPDRFTGSGSGTDFTLTISSVQAEDLAVYYCQNDHSYPFTFGSGTKLEIKRADAAPTVS
Turning to B2, the “blocking of gap junctions (AlexaFluor 488 dye transfer)” value in assay [3] is given as “blocks gap junctions”. In assay [4], the “blocking of gap junction channels” value is “blocks”. Besides, the “blocking of hemichannels (EtBr dye uptake)” value with Cx43 hemichannels [6] is on record as “not hemichannels”. Further, the “blockage of hemichannel opening induced” value with Cx43 hemichannels [7] is “not”.

B3: M7: mouse monoclonal antibody, heavy chain SEQ ID NO:10, light chain SEQ ID NO:12 (antibody, listed as Mus musculus)
heavy: LEQPGAELVRPGASVMLSCKASGYIFTTYWMHWLKQRPGQGLDWIGEISPSNGRSNYNKKFKSKATLTVDKSSSTAYMQLSSLTSEDSAVYYCARFDEGDFWGQGTTLIVSSAKTTAPSVYPLAPVCGDTTGSSV
light: DIVMTQTPASLAVSLGQRATISYRASKSVSTSGYSYMHWNQQKPGQPPRLLIYLVSNLESGVPARFSGSGSGTDFTLNIHPVEEEDAATYYCQHIRELTRSEGGPSWK
Take B3: the “blocking of gap junction channels” value in assay [4] is given as “blocks”. Further, in the assay with Cx43 hemichannels [7], the “blockage of hemichannel opening induced” value is recorded as “blockage”.
